From article doi:10.1101/457440v1

Columns and labels:
purified protein [1] = substrate: O=C(/C=C/c1ccc(O)cc1)c1c(O)cc(O)cc1O; test: purified protein
purified protein [2] = substrate: O=C(/C=C/c1ccc(O)cc1)c1ccc(O)cc1O; test: purified protein
[3] = substrate: O=C(/C=C/c1ccc(O)cc1)c1ccc(O)cc1O; test: Michaelis-Menten kinetics of cyclization; assay type: biochemical, Medicago sativa

Protein	Km (purified protein [1]) [µM]	kcat (purified protein [1])	Km (purified protein [2]) [µM]	kcat (purified protein [2])	Km [3] [µM]	kcat [3] [min⁻¹]
MsCHI-2 (Medicago sativa; G95V) (protein) MAASITAITVENLEYPAVVTSPVTGKSYFLGGAGERGLTIEGNFIKFTAIGVYLEDIAVASLAAKWKGKSSEELLETLDFYRDIISGPFEKLIRVSKIRELSGPEYSRKVMENCVAHLKSVGTYGDAEAEAMQKFAEAFKPVNFPPGASVFYRQSPDGILGLSFSPDTSIPEKEAALIENKAVSSAVLETMIGEHAVSPDLKRCLAARLPALLNEGAFKIGN	5.3 ± 2.6	512 ± 26 min⁻¹	65 ± 10	2.16 ± 0.02 min⁻¹	–	–
MsCHI-2 (Medicago sativa; G95T) (protein) MAASITAITVENLEYPAVVTSPVTGKSYFLGGAGERGLTIEGNFIKFTAIGVYLEDIAVASLAAKWKGKSSEELLETLDFYRDIISGPFEKLIRTSKIRELSGPEYSRKVMENCVAHLKSVGTYGDAEAEAMQKFAEAFKPVNFPPGASVFYRQSPDGILGLSFSPDTSIPEKEAALIENKAVSSAVLETMIGEHAVSPDLKRCLAARLPALLNEGAFKIGN	–	–	–	–	117 ± 12	23.3 ± 1.7
MsCHI-2 (Medicago sativa; K97M) (protein) MAASITAITVENLEYPAVVTSPVTGKSYFLGGAGERGLTIEGNFIKFTAIGVYLEDIAVASLAAKWKGKSSEELLETLDFYRDIISGPFEKLIRGSMIRELSGPEYSRKVMENCVAHLKSVGTYGDAEAEAMQKFAEAFKPVNFPPGASVFYRQSPDGILGLSFSPDTSIPEKEAALIENKAVSSAVLETMIGEHAVSPDLKRCLAARLPALLNEGAFKIGN	14.5 ± 4.2	1,300 ± 154 min-1	25.7 ± 2.1	658 ± 11 min⁻¹	–	–
MsCHI-2 (Medicago sativa; R36K) (protein) MAASITAITVENLEYPAVVTSPVTGKSYFLGGAGEKGLTIEGNFIKFTAIGVYLEDIAVASLAAKWKGKSSEELLETLDFYRDIISGPFEKLIRGSKIRELSGPEYSRKVMENCVAHLKSVGTYGDAEAEAMQKFAEAFKPVNFPPGASVFYRQSPDGILGLSFSPDTSIPEKEAALIENKAVSSAVLETMIGEHAVSPDLKRCLAARLPALLNEGAFKIGN	98.3 ± 1.5	25.4 ± 1.1 min⁻¹	–	–	–	–
AtCHI-1 (Arabidopsis thaliana) (protein) MSSSNACASPSPFPAVTKLHVDSVTFVPSVKSPASSNPLFLGGAGVRGLDIQGKFVIFTVIGVYLEGNAVPSLSVKWKGKTTEELTESIPFFREIVTGAFEKFIKVTMKLPLTGQQYSEKVTENCVAIWKQLGLYTDCEAKAVEKFLEIFKEETFPPGSSILFALSPTGSLTVAFSKDDSIPETGIAVIENKLLAEAVLESIIGKNGVSPGTRLSVAERLSQLMMKNKDEKEVSDHSVEEKLAKEN	62 ± 9	379 ± 35 min⁻¹	16.8 ± 3.5	0.064 ± 0.005 min⁻¹	–	–
MsCHI-2 (Medicago sativa) (protein) MAASITAITVENLEYPAVVTSPVTGKSYFLGGAGERGLTIEGNFIKFTAIGVYLEDIAVASLAAKWKGKSSEELLETLDFYRDIISGPFEKLIRGSKIRELSGPEYSRKVMENCVAHLKSVGTYGDAEAEAMQKFAEAFKPVNFPPGASVFYRQSPDGILGLSFSPDTSIPEKEAALIENKAVSSAVLETMIGEHAVSPDLKRCLAARLPALLNEGAFKIGN	112 ± 28	11,180 ± 1,380 min-1	8.4 ± 2.0	2,250 ± 165 min-1	–	–
AtCHI-1 (Arabidopsis thaliana; V106G) (protein) MSSSNACASPSPFPAVTKLHVDSVTFVPSVKSPASSNPLFLGGAGVRGLDIQGKFVIFTVIGVYLEGNAVPSLSVKWKGKTTEELTESIPFFREIVTGAFEKFIKGTMKLPLTGQQYSEKVTENCVAIWKQLGLYTDCEAKAVEKFLEIFKEETFPPGSSILFALSPTGSLTVAFSKDDSIPETGIAVIENKLLAEAVLESIIGKNGVSPGTRLSVAERLSQLMMKNKDEKEVSDHSVEEKLAKEN	19.0 ± 0.5	332 ± 34 min⁻¹	–	–	–	–
